Data taken from article PMC10267556 (Nature Communications, 2023).

B1: TH003 (antibody, V domains shown)
VH: EVRLLESGGGLVQPGGSLRLSCAASGFTFNDYAMSWVRQAPGEGLEWVSTISYSGGSTYYADSVKGRFTISRDNSKNMLYLQMNSLRAEDTALYYCANGVATADWYFDLWGRGTLVTVSS
VL: QSALTQPRSVSGSPGQSVTISCTGTSSDVGGYNYVSWFQHHPGKAPKLMIYDVTDRPSGVPDRFSGSKSGNTASLTISGLQAEDAADYYCCSYAGTYTVFGGGTKLTVL
notes: IgG1 (D2:p3)
B2: TH027 (antibody, V domains shown)
VH: QITLKESGLTLVRPTQTLTLTCTFSGFSLINSGVGVGWIRQPPGKALEWLALIYWDDDKRYNPSLRSRLTISKATSKNQVVLTMTNMDPVDTATYYCTHRGPGHNTPIYFEFWGQGALVTVSS
VL: QSVLTQSPSASGTPGQRVTISCSGSRSNIGSNFVYWFHQLPGTAPKLLIHSNDQRPSGVPDRFSGSNSGTSASLAISGLRSEDEADYYCAAWDDSLSSWVFGGGTKLTVL
notes: IgG1 (D2:p3)
B3: TH132 (antibody, V domains shown)
VH: EVQLVESGGGLVQPGGSLRLSCAASGITVSRNYMSWVRQAPGKGLEWVSVMFAGGSTFYADSVKGRFTISRDNSKNTLYLQMNSLRAEDTAVYYCARDLGVVGATDYWGQGTLVTVSS
VL: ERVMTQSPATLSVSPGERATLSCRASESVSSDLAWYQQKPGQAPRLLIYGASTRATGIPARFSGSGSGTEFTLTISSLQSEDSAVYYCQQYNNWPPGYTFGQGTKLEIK
notes: IgG1 (D2:p3)
B4: TH236 (antibody, V domains shown)
VH: QVQLVESGGGLVKPGGSLRLSCAASGFMISDSYMNWIRQPPGKGLEWVSYISSNGYAIYYGDSVKGRFTISRDNAKNFLYLQMNSLRVEDTAVYYCAREQPGGYYDSSGYRLDPWGQGILVTVSS
VL: QSALTQPASVSGSPGQSITISCTGTSSDVGGYNYVSWYQQHPGKAPKLMIYDVSNRPSGVSNRFSGSKSGNTASLTISGLQAEDEADYYCSSYTSSSTLYVFGTGTKVTVL
notes: IgG1 (D2:p3)
B5: TH272 (antibody, V domains shown)
VH: QITLKESGPTLVKPTQTLTLTCTFSGFSLSTGGVSVGWIRQPPGKALEWLALIYWDDDKRYSPSLESRLTITKDTSKNLVVLTLTNMDPVDTATYYCAHKTIPTIFDYWGQGTLVTVSS
VL: QSALTQPASVSGSPGQSITISCTATSSDVGAYQYVSWYQQYPGKAPKLMIYEVSKRPSGVSNRFSGSKSGNTASLTISGLQAEDDAYYYCNSYTTSSVVFGGGTKLTVL
notes: IgG1 (D2:p3)
B6: TH281 (antibody, V domains shown)
VH: EVQLVESGGGLVQPGGSLRLSCAASEITVSRNYMSWVRQAPGKGLEWVSVMFAGGSTFYADSVKGRFTISRDNSKNTLYLQMNSLRAEDTAVYYCARDLGVVGATDYWGQGTLVTVSS
VL: not shown
notes: IgG1 (D2:p3)
B7: TH132 monoclonal antibody (IgG) (antibody, V domains shown)
VH: EVQLVESGGGLVQPGGSLRLSCAASGITVSRNYMSWVRQAPGKGLEWVSVMFAGGSTFYADSVKGRFTISRDNSKNTLYLQMNSLRAEDTAVYYCARDLGVVGATDYWGQGTLVTVSS
VL: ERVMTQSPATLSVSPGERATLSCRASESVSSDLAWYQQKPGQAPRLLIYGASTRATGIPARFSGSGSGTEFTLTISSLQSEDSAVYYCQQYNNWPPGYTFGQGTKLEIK
notes: copies: 2 + 2

How the values were obtained:
Test in all cases: SPR
Conditions in all cases: both partners purified
Spike (BA.1) = target: T1, Spike (BA.1) (SARS-CoV-2, Omicron BA.1, strain)
T1 construct: source: bought: Sino Biological

RBD (BA.4/5) = target: T2, RBD (BA.4/5) (SARS-CoV-2, Omicron BA.4/5, strain)
T2 construct: source: bought: Sino Biological

Spike (BA.4/5) = target: T3, Spike (BA.4/5) (SARS-CoV-2, Omicron BA.4/5, strain)
T3 construct: source: bought: Sino Biological

RBD (BA.1) = target: T4, RBD (BA.1) (SARS-CoV-2 Omicron BA.1, strain)
T4 construct: source: bought: Sino Biological

Spike (XBB) = target: T5, Spike (XBB) (SARS-CoV-2, Omicron XBB, strain)
T5 construct: source: bought: Sino Biological

Spike (XBB.1.5) = target: T6, Spike (XBB.1.5) (SARS-CoV-2, Omicron XBB.1.5, strain)
T6 construct: source: bought: Sino Biological

[1] = target: SARS-CoV-2 Omicron XBB.1.5 spike protein (SARS-CoV-2 Omicron XBB.1.5, strain)
[2] = target: SARS-CoV-2 Omicron XBB spike protein (SARS-CoV-2 Omicron XBB, strain)

Binder	Kd (Spike (BA.1))	Kd (RBD (BA.4/5))	Kd (Spike (BA.4/5))	Kd (RBD (BA.1))	Kd (Spike (XBB))	Kd (Spike (XBB.1.5))	Kd [1]	Kd [2]
B1	2.55 nM	0.484 nM	1.59 nM	1.29 nM				
B2	7.06 nM	0.752 nM	1.86 nM	0.838 nM				
B3	1.26 nM	0.484 nM	0.00171 nM	0.726 nM	1.34 nM	1.09 nM		
B4	0.0867 nM	0.621 nM	0.602 nM	0.3 nM				
B5	1.33 nM	0.045 nM	0.000976 nM	0.296 nM				
B6	0.517 nM	0.00781 nM		0.119 nM				
B7							~1 nM	~1 nM
